Laboratory results as given in US20070202045A1.

Target: Rabbit SA (rabbit) (UniProt P49065)
Test: competition ELISA (SA08b binding to rabbit albumin)

Rabbit SA (rabbit), sequence (P49065 25-608): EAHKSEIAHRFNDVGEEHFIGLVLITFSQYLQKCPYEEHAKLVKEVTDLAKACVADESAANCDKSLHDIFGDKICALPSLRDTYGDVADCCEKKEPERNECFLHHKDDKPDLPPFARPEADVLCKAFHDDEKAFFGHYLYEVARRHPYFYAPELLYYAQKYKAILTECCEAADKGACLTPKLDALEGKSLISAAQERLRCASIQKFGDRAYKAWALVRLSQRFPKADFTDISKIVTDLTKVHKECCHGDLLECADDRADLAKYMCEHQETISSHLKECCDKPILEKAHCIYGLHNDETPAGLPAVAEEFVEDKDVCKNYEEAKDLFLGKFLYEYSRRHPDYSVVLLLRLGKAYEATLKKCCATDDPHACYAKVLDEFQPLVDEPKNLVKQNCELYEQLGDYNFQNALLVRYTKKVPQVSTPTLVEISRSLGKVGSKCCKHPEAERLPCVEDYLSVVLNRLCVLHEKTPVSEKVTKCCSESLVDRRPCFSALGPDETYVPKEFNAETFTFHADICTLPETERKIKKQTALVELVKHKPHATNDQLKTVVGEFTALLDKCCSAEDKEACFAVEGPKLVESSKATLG

IC50: 10 nM
Substance: dia4D5
